Experimental findings from patent publication US20220267796A1 are described below.

Assay [1] deals with AAV8 (recombinant adeno-associated virus serotype 8 particles, capsid of VP1, VP2 and VP3 of AAV8) (adeno-associated virus 8 (AAV8)). Put plainly: affinity chromatography on AAVX column, +2-8° C., ELT-buffer pH 7.0; AAV8 ELISA of fraction.
Assay [2] concerns the target AAV9 (recombinant adeno-associated virus serotype 9 particles, capsid of VP1, VP2 and VP3 of AAV9) (adeno-associated virus 9 (AAV9)). Briefly: batch adsorption at room temperature, then 30 min in 1 ml cold 125 mM NaCl/50 mM Tris HCl pH 8.5 at +2° C. to +8° C.; AAV9 ELISA of supernatant. Background: ELISA stands for enzyme-linked immunosorbent assay.
The target is the same in assay [3]. Briefly: affinity chromatography on AAVX column, strip at +2-8° C. with 100 mM Glycine, 200 mM NaCl pH 2.0; AAV9 ELISA of fraction.
In assay [4] the target is AAV8 (recombinant adeno-associated virus serotype 8 particles, capsid of VP1, VP2 and VP3 of AAV8) (adeno-associated virus 8 (AAV8)). Briefly: affinity chromatography on AAVX column, +2-8° C., 125 mM NaCl/50 mM TrisHCl pH 8.5; AAV8 ELISA of fraction.
Assay [5] deals with AAV9 (recombinant adeno-associated virus serotype 9 particles, capsid of VP1, VP2 and VP3 of AAV9) (adeno-associated virus 9 (AAV9)). Briefly: affinity chromatography on AAVX column, gradient 1 mM to 20 mM HCl/200 mM NaCl at +2-8° C.; AAV9 ELISA of fraction.
Assay [6] has as its target AAV8 (recombinant adeno-associated virus serotype 8 particles, capsid of VP1, VP2 and VP3 of AAV8) (adeno-associated virus 8 (AAV8)). Briefly: affinity chromatography on AAVX column, +2-8° C., 100 mM NaAcetate/0.1% Tween 80 pH 6.0; AAV8 ELISA of fraction.
Assay [7] concerns the target AAV9 (recombinant adeno-associated virus serotype 9 particles, capsid of VP1, VP2 and VP3 of AAV9) (adeno-associated virus 9 (AAV9)). Briefly: affinity chromatography on AAVX column, +22-28° C., 125 mM NaCl/50 mM TrisHCl pH 8.5; AAV9 ELISA of fraction (load 2.86 x 10^11 cp/ml).
Assay [8] shares this target. Put plainly: affinity chromatography on AAVX column, elution at +2-8° C. with 125 mM NaCl/50 mM TrisHCl pH 8.5; AAV9 ELISA of fraction.
The target of assay [9] is AAV8 (recombinant adeno-associated virus serotype 8 particles, capsid of VP1, VP2 and VP3 of AAV8) (adeno-associated virus 8 (AAV8)). Briefly: affinity chromatography on AAVX column, +18-26° C., 125 mM NaCl/50 mM TrisHCl pH 8.5; AAV8 ELISA of fraction.
Assay [10] concerns the target AAV9 (recombinant adeno-associated virus serotype 9 particles, capsid of VP1, VP2 and VP3 of AAV9) (adeno-associated virus 9 (AAV9)). Put plainly: affinity chromatography on AAVX column, +22-28° C., 125 mM NaCl/50 mM TrisHCl pH 8.5; AAV9 ELISA of fraction.
The target is the same in assay [11]. Briefly: batch adsorption, 0.2 g resin + 9.6 g LOAD, 15 to 16 h at +2° C. to +8° C.; AAV9 ELISA of supernatant.
The target of assay [12] is AAV8 (recombinant adeno-associated virus serotype 8 particles, capsid of VP1, VP2 and VP3 of AAV8) (adeno-associated virus 8 (AAV8)). Briefly: affinity chromatography on AAVX column, +18-26° C., 100 mM NaAcetate/0.1% Tween 80 pH 6.0; AAV8 ELISA of fraction.
Assay [13] concerns the target AAV9 (recombinant adeno-associated virus serotype 9 particles, capsid of VP1, VP2 and VP3 of AAV9) (adeno-associated virus 9 (AAV9)). Briefly: affinity chromatography on AAVX column, elution at +2-8° C. with 100 mM NaAcetate/0.1% Tween 80 pH 6.0; AAV9 ELISA of fraction.
Assay [14] has the same target. Put plainly: affinity chromatography on AAVX column, +22-28° C., 100 mM NaAcetate/0.1% Tween 80 pH 6.0; AAV9 ELISA of fraction.
Assay [15] has as its target AAV8 (recombinant adeno-associated virus serotype 8 particles, capsid of VP1, VP2 and VP3 of AAV8) (adeno-associated virus 8 (AAV8)). Put plainly: affinity chromatography on AAVX column, +18-26° C., 125 mM NaCl/50 mM TrisHCl pH 8.5; AAV8 ELISA of fraction (load 23.2 x 10^11 cp/ml).
Assay [16] has the same target. Put plainly: affinity chromatography on AAVX column, gradient 1 mM to 20 mM HCl/200 mM NaCl at +2-8° C.; AAV8 ELISA of pooled fraction.
Assay [17] concerns the target AAV9 (recombinant adeno-associated virus serotype 9 particles, capsid of VP1, VP2 and VP3 of AAV9) (adeno-associated virus 9 (AAV9)). Briefly: affinity chromatography on AAVX column, standard elution at +18-26° C. with 100 mM Glycine, 200 mM NaCl pH 2.7; AAV9 ELISA of fraction.
The target is the same in assay [18]. Put plainly: batch adsorption, 0.2 g resin + 9.6 g LOAD, 15 to 16 h at +18° C. to +30° C., 125 mM NaCl/50 mM Tris HCl pH 8.5; AAV9 ELISA of supernatant.

With “POROS CaptureSelect AAVX Affinity Resin (Cat. No. 36742; Thermo Fisher), immobilised affinity ligand”, in assay [1], the AAV8 Antigen cp/ml in low temperature eluate 2 is below 1.59e+09 cp/ml. The % AAV9 Antigen in eluate (released at low temperature) in assay [2] came to 36.7%. In addition, the AAV9 Antigen [%] of load released only by acidic strip in assay [3] was found to be 16.9%. For the same substance, the AAV8 Antigen cp/ml in low temperature eluate 3 in assay [4] is below 1.59e+09 cp/ml. Further, the AAV9 Antigen [%] of load released by acidic gradient in [5] worked out at 5.42%. Moreover, the AAV8 Antigen cp/ml in low temperature eluate 1 in assay [6] is below 1.59e+09 cp/ml. Also, the AAV9 Antigen cp/ml in flow-through/wash 1 (not bound) in assay [7] was below 3.8e+09 cp/ml. Further, in assay [8], the AAV9 Antigen [%] of load released in low temperature eluate was 44.8% and the AAV9 Antigen [%] of load released in low temperature eluate 3 stood at 11.6%. The AAV8 Antigen cp/ml in wash 3 in assay [9] is below 1.59e+09 cp/ml. In assay [10], the AAV9 Antigen [%] of load found in flow-through/wash 1 (not bound) turned out to be 1.76%, the AAV9 Antigen [%] of load found in wash 3 was 0.04% and the AAV9 Antigen cp/ml in wash 3 is below 3.8e+09 cp/ml. The % AAV9 Antigen in supernatant (not bound) after incubation at low temperature in assay [11] worked out at 63.7%. In [12], the AAV8 Antigen cp/ml in wash 2 was below 1.59e+09 cp/ml and the AAV8 Antigen cp/ml in wash 4 is below 1.59e+09 cp/ml. Further, in assay [13], the AAV9 Antigen [%] of load released in low temperature eluate 1 amounted to 61.2%. Further, in assay [14], the AAV9 Antigen [%] of load found in wash 2 was found to be 0.04%, the AAV9 Antigen cp/ml in wash 2 is below 3.8e+09 cp/ml and the AAV9 Antigen cp/ml in wash 4 is below 3.8e+09 cp/ml. Besides, the AAV8 Antigen cp/ml in flow-through/wash 1 (not bound) in [15] was below 1.59e+09 cp/ml. For the same substance, in assay [16], the AAV8 Antigen [%] of load released by acidic gradient came to 75.8%. The AAV9 Antigen [%] of load released by acidic elution in [17] stood at 81.5%. Also, the % AAV9 Antigen in supernatant (not bound) after incubation at room temperature in assay [18] came to 6.2%.
